Reference: the supplement of paper PMC7877785
± gives the uncertainty stated by the source.

Experiment: self-splicing fitness, log relative to wild type (ln ratio); higher = more splicing; Tetrahymena group I intron in knt gene, E. coli kanamycin selection, DiMSum; sequences stand for … in CUCUCU…GGAGGGAAAAGUUAUCAGGCAUGCACCUGGUAGCUAGUCUUUAAACCAAUAGAUUGCAUCGGUUUAAAAGGCAAGACCGUCAAAUUGCGGGAAAGGGGUCAACAGCCGUUCAGUACCAAGUCUCAGGGGAAACUUUGAGAUGGCCUUGCAAAGGGUAUGGUAAUAAGCUGACGGACAUGGUCCUAACCACGCAGCCAAGUCCUAAGUCAACAGAUCUUCUGUUGAUAUGGAUGCAGUUCACAGACUAAAUGUCGGUCGGGGAAGAUGUAUUCUUCUCAUAAGAUAUAGUCGGACCUCUCCUUAAUGGGAGCUAGCGGAUGAAGUGAUGCAACACUGGAGCCGCUGGGAACUAAUUUGUAUGCGAAAGUAUAUUGAUUAGUUUUGGAGUACUCGUGGUCG
How it was run: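 Fitness was computed with DiMSum as the error-weighted combination of replicate fold changes, kanamycin versus none, each normalised to wild type. The library randomised all eight intron nucleotides of the P1ex region, with the intron placed in the knt kanamycin-resistance gene on pET-22b(+) in E. coli BL21(DE3). Six replicate transformations were grown overnight at 37°C or 30°C on LB agar with or without 25 μg/mL kanamycin, plus 100 μg/mL carbenicillin, 50 μM IPTG and 0.2% rhamnose. Pooled colonies were amplicon-sequenced on an Illumina HiSeq 2500.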

Sequence	self-splicing fitness (ln) (37 °C)	self-splicing fitness (ln) (30 °C)
CUUGAGCAAUAUUACGGCAU	-1.93 ± 0.28	
GCUAAGCAAUAUUACGAGGC	-1.6 ± 0.33	-1.85 ± 0.21
GAUCAGCAAUAUUACGACUA	-0.914 ± 0.2	-0.353 ± 0.4
AUGUAGCAAUAUUACGUGUU	-1.08 ± 0.14	-2.4 ± 0.12
AUGUAGCAAUAUUACGUUCU	-0.469 ± 0.094	-1.05 ± 0.082
UGACAGCAAUAUUACGCUUA	-0.0997 ± 0.094	-1.26 ± 0.088
GUUAAGCAAUAUUACGAGCU	-1.08 ± 0.15	-1.76 ± 0.13
CUCCAGCAAUAUUACGCAUU	-3.51 ± 0.23	-3.38 ± 0.13
GAACAGCAAUAUUACGUAAA	0.234 ± 0.075	-0.541 ± 0.061
UGAUAGCAAUAUUACGAGUG	-0.545 ± 0.12	-1.14 ± 0.084
CGUCAGCAAUAUUACGGAAG	0.304 ± 0.12	-0.632 ± 0.088
CAUGAGCAAUAUUACGCCCA		-1.49 ± 0.42
CCCAAGCAAUAUUACGUGGC	-2.8 ± 0.18	-3.5 ± 0.13
CAAAAGCAAUAUUACGGUAC	-1.24 ± 0.18	-3.79 ± 0.23
AGCUAGCAAUAUUACGUGUU	-2.11 ± 0.14	-1.86 ± 0.14
AACAAGCAAUAUUACGCCCC	0.323 ± 0.26	-0.645 ± 0.24
GAUUAGCAAUAUUACGCCAG	-0.806 ± 0.34	-2.17 ± 0.32
AACCAGCAAUAUUACGAUGG	-2.76 ± 0.14	-2.91 ± 0.11
ACGUAGCAAUAUUACGCGAU	-1.5 ± 0.11	-3.01 ± 0.14
UUGGAGCAAUAUUACGGAUA	-2.04 ± 0.23	-2.85 ± 0.21

Sequence	self-splicing fitness (ln) (37 °C)	self-splicing fitness (ln) (30 °C)
ACAGAGCAAUAUUACGCUAG	-2.61 ± 0.18	-3.28 ± 0.19
GGCCAGCAAUAUUACGAGAA	-2.06 ± 0.36	
CCCUAGCAAUAUUACGUCUC	-2.67 ± 0.27	-3.71 ± 0.41
CAACAGCAAUAUUACGUAGU	-1.91 ± 0.11	-3.22 ± 0.12
CGGUAGCAAUAUUACGUCGA	-0.214 ± 0.16	-2.09 ± 0.23
ACCCAGCAAUAUUACGGUAA	-0.477 ± 0.087	-1.26 ± 0.09
AAAAAGCAAUAUUACGGGUG	-0.982 ± 0.077	-1.69 ± 0.062
ACAAAGCAAUAUUACGGUAA	-1.49 ± 0.13	-2.45 ± 0.17
GGGCAGCAAUAUUACGUUAG	-0.462 ± 0.13	-1.81 ± 0.093
GAAGAGCAAUAUUACGUGGU	-3.01 ± 0.32	-4.07 ± 0.23
AACAAGCAAUAUUACGGCUA	0.274 ± 0.092	-0.414 ± 0.067
UACGAGCAAUAUUACGUGCC		-2.35 ± 0.29
GGAAAGCAAUAUUACGUCUA	0.689 ± 0.14	-0.626 ± 0.11
UUGCAGCAAUAUUACGGAGG	-2.73 ± 0.24	-2.94 ± 0.16
CUAAAGCAAUAUUACGAGGU	-2.81 ± 0.25	-4.41 ± 0.24
UGGAAGCAAUAUUACGGCAG	-0.772 ± 0.25	-1.15 ± 0.16
AAAAAGCAAUAUUACGCGCG	-0.207 ± 0.11	-0.0286 ± 0.091
ACCGAGCAAUAUUACGGGGU	-2.46 ± 0.17	-3.7 ± 0.17
UGGUAGCAAUAUUACGCAGA	-0.684 ± 0.1	-2.45 ± 0.16
